Consider 22 sequences from the DeepSol protein solubility set.

The nature of this data set: soluble on expression in E. coli; label from the status in PepcDB or PDB records.
As for “SLREHLMSIEVANESGIDVSEAELVSVARFVIAKMDVNPCAELSMLLLDTAAMADLHMRWMDLPGPTDVMSFPMDELEPGGRPDAPEPGPSMLGDIVLCPEFAAEQAAAAGHSLGHELALLTIHGVLHLLGYDHAEPDEEKEMFALQDRLLEEWVADQVEAYQHDRQDEKDRRLLDKSRYFDL”, the “soluble on expression in E. coli” value was “not soluble”.

In the case of “MGSDKIHHHHHHMDLDRLQTFLKVVQYGSFQQVAAREYRSQRTVSKQMTQLENELKVTLFDRGQNRIQLTPQGRLFWASAQDIVNNYTTALTELRQFNVPTDQILRVGYFSAFEQRLLLPALYDLKQQHSELQLVVRQGSNEHLAQQVADGSLDLALSINYGRPAVTPESQLTAVPIYHNQMVIGVSRLNPLSRLSQLPPSALATLPILYYSPESSTFLLESFLASAPFIQDYEQIRRVSSAEQMHLLVALNQALAFYPAGLVPTKHDEQVAYLPITDAAQQGYDIVALLKSNRSRPLIAKLVQRLKANAKSDE”, the “soluble on expression in E. coli” value is on record as “not soluble”.

Take “MGSDKIHHHHHHMVKTSQLPAVDRTVPLEQISQFAEKVTIFTDELRETILAPRPRKTAPIFKTGEIAEMCNISHSQVQYLATKGDGELPPGTAAGTGRTRTFTLQEARTWVQKVSDIYQTPLVTGTREPEGKIIITAQLKGGSAKTTTTMCLAQGLTLRGRKVLVVDLDPQASLSELCGLYAEKDVSPEDSVLPYIYDQQIEGGLQSRVQSTYWDGLDLIPAHTELIGAEFHLPAMQKIKPGFRFWTVLREGLEPLRKHYDYILMDTSPSLSYMNLNALLAADAMVMPMVPENLDFISSLSFWRLFSDVSKSFIKYEADKKYDFVSLLLSRVDYGRTSSAPIVRAWAQSAYESWLHSIEVPASSVMSTGALAFSTVFDVSSTHSAAKSLQRVRQPIVDYCRWLDEIYAEKWRSAQ”: the “soluble on expression in E. coli” value is reported as “not soluble”.

As for “MKKILALLVIAPLLVSCSGNKNQVENEVFVKDTNGFEILMGQFAHNIENIWGLKEVLIAGPKDYVKYTDQYQTRSHINFDAGTITIETIATTNPAAHLRQAIITTLLMGDDPGSIDLYSDVNDIQISKEPFLYGQVLDNNGEPIRWEWRAAHFADYLLQNKMQTRTSGLHVISFVTIQLVPNHLDKRAHKYLPLVRKSAARYGVEESLILAIMQTESSFNPYAVSRSDALGLMQVVQHTAGKDVFKLKGKSGQPSRSYLFDPENNIDAGTAYLSILQNTYLGGIQNATSRRYAVITSYNGGAGSVLRVFHSDKNKAVGIINTMSPGDVFQTLTTKHPSGESRRYLVKVNSAQKNYRRY”, the “soluble on expression in E. coli” value is on record as “not soluble”.

Turning to “MGSDKIHHHHHHESEDPWLVLQKAARAAHELSYKGVFIYQAGDNIKSVQITHTNSGQGEYARMVVLDGAPREVLSQGGDVVIFSSKNEKVIMEKRRAHNLFPAVLPDDMELLKANYQARIGGTERIAGRAGRVVFLDPRDGLRYAYKFWADCEYGLLLKSLMLSEQKQMLEQMAFSQLNMMEEQGMDWFHPSVDHSKHYILEEANAQLVQEASNWTVGALPVGYRKVEQVTRLVPGKSAPVTQVIFTDGLASVSLFIEPLSKGVRPRIGQTSKGATHFYANVSKGHQILVVGEVPAATVAQIGSAVSFK”, the “soluble on expression in E. coli” value is “not soluble”.

With “MGSDKIHHHHHHMASAPQANLPMFYNDLMPLNSRDHAAWKAKNADAAPWLIGQHAIPLTAEEFPQAARHYPIIFASGDNPVPLALMGLNEGVNVFVDEDGKVTQPVYIPAYVRRYPFLLAKLNPNSEELSLCFDPSSGLIGDSVDGVELFSDGQPSEATKAALGFCEQFEQAGQRTQAFIDELKKHDLLMEGEVAIQQQGNEQPFIYRGFQMVNQDKLRETRGDVLRGWAQSGLLPLLYAHLFSLELISQIFGAQVQMGKGPIPATPVPAE”, the “soluble on expression in E. coli” value is “not soluble”.

With “MEQLTKNQRKKRDEIEAGKSYCSRRFGGATCDDKSAQIYARFDKNDWRIQPAEFYRFHDAEVNTFGYF”, the “soluble on expression in E. coli” value is given as “soluble”.

As for “GPLGSKLNDILHVYEKSKERELQSQLFNAWRNRFCFYTEECNIQAISKRNYQLEKMVLKKFRERLLEIVKSEE”, the “soluble on expression in E. coli” value is listed as “soluble”.

In the case of “MGSDKIHHHHHHMCNSYLEYTAAGVSDLRPYQPGKPLAELERELGIRDAIKLASNENPLGPSPLALAAVREVLPALAQYPEGSAPELRALLARQLDLDPGQFIFGNGSDQVVELAVRALAGPGTEVIVSQYAFAAYAIAAQASGATVRVAPARDYGHDLDAMASLLNANTRLVFIANPNNPTGTYLTADALETFIDSVPSHALVVLDEAYLELMDAADYPDGRRWLRRFGNLMLTRTFSKAYGLAGLRCGYGIGHPDLMAVLERVRQPFNVNTLAQVAAHAALTDRAHLQATLANNRQGIVALRDGLCNLGLTILPPAGNFTAFAVPGGGQRVYEALLLRGVIVRPLTPYGMPDHLRVSVGLPVENQRFLTMLGEVL”, the “soluble on expression in E. coli” value is recorded as “not soluble”.

“MTYQTIVVAVDGSKEAEWALKKAIQIAKRNGAKLILSHIIDLRGFTTVEAHDYALAERSEQYANELLERYKNEAIAAGLDDVDIAVEFGSPKVKIAKDVAPKYKADLIVCGATGLNAVERLLIGSVSENIVRHAKCDVLVVRTPKE”: the “soluble on expression in E. coli” value is listed as “soluble”.

Turning to “MGHHHHHHSHMNIQKDGKNVTSRREWIEKLVESKGKVDIEELASHFGVSSMTIRRDLMHLEEHNKLIRTHGGAVAPSSLIGETPYAQKQTEHLMEKQLIAKQASTLVPEGATILVDSGTTTLELIKLLKDRNDLTIVTNDITIAAELVNASPKCIVTGGELQLGVGALFGPQTEGMIRELHVDLFFLGAHAVDEAAGVTAPTLEKAAIKKRMMEAAQTTWLICDSSKFSKRAFANVCQLTKLEGIITDANFLTSFKHENYHDNMVIAQA”, the “soluble on expression in E. coli” value is “soluble”.

For “MGSDKIHHHHHHMPAFPLNAWYAAAWDADIKHALFPRTICGKHVVMYRKADGTVAALEDACWHRLVPLSKGRLEGDTVVCGYHGLKFNPQGRCTYMPSQETINPSACVRSYPVVERHRFVWLWMGDPVLADPALVPDMHWNDDPAWAGDGKTIYAKCDWRLVVDNLMDLTHETYVHGSSIGNEAVAEAPFDVTHGDRTVTVTRWMKGIEPPPFWAAQLGKPGLVDRWQIIRFEAPGTVTIDVGVAPAGTRAPEGDRSQGVNGFVLNTMTPETDTTCHYFWAFVRNYRLSEQRLTTEIREGVSGIFREDEIILEAQQRAMLENPDRVFYNLNIDAGAMWSRKLIDRMVAQESAPKLQAAE”, the “soluble on expression in E. coli” value is “not soluble”.

As for “MGSDKIHHHHHHMRGKMIDDPIDLLRQYSRKLVRELGMLQLNKLAAKEQPSYWHTLIEINKEPNITISKLSQLLLVSLPTLSRIVNSLINDELVTVNEGLDKRERFLRVTDKGKEKVNYIDEYSNTKIKRAFHYLTDEEREQVITAIGKYAQALEQSRLIRDQIRILRLSTSRALRKQIVNMIENIQVNEFHLSITPEINASILKAEEEYCYYSSCNFWYAVDEQGGIIGSIGLKKLNHTEGEVKKFFIAPKYRGLGLAQKLMLTLVRNAMKHGFKKLFLGTVAQLNAARRFYEKNGFVLVNKNSLPKEFELCPLDTHFYYCETDKLDKSLRELI”, the “soluble on expression in E. coli” value was “not soluble”.

For “MDYYYYPFVSDPYAVYTPNVWQSQGADELYLYSMPAIERQPQPVLSNAPAQTSIVLFKELTGYPNYGNPSGNADILYTGNRGTWTFDIQPILLIPGNLTAQLVIRGVLDDHTNVPVANYSARITINGTVVHTGRLPLVHGSPAGQRFNNWRLLTFNVPNLRRNNTVVIQNTSNTGPNDWIAFDWMELRLQPR”, the “soluble on expression in E. coli” value was “not soluble”.

Consider “MCLIAFDWQPDAAAGPVFTLIANRDEFFRRTSAPLSWWEDVPGVLAGRDLEAGGTWLGVSRDGRFAALTNYRAPFDIRAGAPTRGKLVSDFLGGPPVAPLDYLGALAEHSAVYNGFNLLVGDWKRRELAWFCNRAAEGETAVAPPVAVSAGVHALSNARLDTPWPKIVRKRAELGTLLTDNPTPSLDELIELMRDPRVADDDALPHTGIPIERERALSAAFIETPEYGTRGTTALRVTMKEGVRLTVDIKERCDDDGSHRTVRPGTFERAFTFDIDATQPRLEHHHHHH”, for which the “soluble on expression in E. coli” value is recorded as “soluble”.

“MIFAYNKEQVGDVLLVILEDTKDIKRSVERKGKVARVTADETGKTLAWNIFEASSLIDIEGNGQVFLSDQDVAILNEELAKEGFEERLENTQGPVFVVGQIDEMVPHPDSDHLNICQVNIGDKKVQIVAGAPNASPGLKTIVALPGAMMPSGALIFPGKLRGEDSYGMMCSPRELALPNAPQKRGIIELDDSAVVGEAFDPAKHWKRLEHHHHHH”: the “soluble on expression in E. coli” value was “soluble”.

Consider “MLKNLRIGKFEPEEEYVHFTYSIKNSEREKSKELIKEYRTLLQKAIDYLWSLTKIQVRKKNGNYKITLPKKKEVYKPLREELEKINHLASHYVDKAINDAFSILKSWRKRAIKGRASIEKPRVKKAYVRIKTTLRKVVGESVRITVRPHEYITFPWSKSWFSRRVRELELGEPIIKEEKVYLPFRYKLPWVTPVNFLAIDSNLYTLDAYDGEKFVTISLKQLYSLKYSMEVKRAKVQSFASKHTKRGRELMRKYSHRERNRVLDFVHKFVNALLDLYPMTFFAVEKLDKEGMFVDANESLSRKISRTVWRSIHRVLKYKAPLYGSFVKEVNPYLTSRSCPRCGFVSRKVGKTFECERCGFKLDRQLNASLNIYLKMCGFPHIREIARVWVGVIPLMGRRGMNVRDFGEAQGLRINIKYHEIPLEHHHHHH”, for which the “soluble on expression in E. coli” value is “not soluble”.

For the sequence “MSKPTLAVALIVKNEARHLDECLQTVHDWVDEIVVLDSGSHDETEQVARRYTEKFYVNAKWPGFGLQRQLAQSYVQSDYVLWLDADERVTPELKQSILQAVAANKPDTLYQFARLSWVFGRFIRHSGWYPDRVLRLYPTQLTRYNDALVHEKVHVEPSMKVETLAGDAIHYTYNDVHHYLVKSAGYAKAWADQRQAKGKKASLSQGIVHAVGCFLKMYLLKRGFLDGKQGFLIALLSAHSTFVKYADLWARDNDEHYKR”, the “soluble on expression in E. coli” value is “not soluble”.

Turning to “MGSDKIHHHHHHMTKRHTETKAYVKTALTTLLTEQSFETLTVSDLTKKAGINRGTFYLHYTDKFDMMNHFKNDTLDDLYRLLNQAEIYTDTRQVLNQTLSYLIEHREFITALATISYLKFPQLIKDFCYQFLTTITGFQDIVTNQYHIPYPYALEVYLASIESIISYWIANGYQETTEEVADIILKAVTLDN”, the “soluble on expression in E. coli” value is reported as “not soluble”.

As to “MAHHHHHHMGIYSDTDDDSPIGIEVVGEASSDSEEPNPHSTTKRKVSGAVDHNNGYNQKKNKRRRLKNKWEENPQLHETPDEEQISNVKKRVYVLDTCSIVEHIEWSILEEVAKYYLIIIPKKVMDELGKMEGGRGSTCNRVLNKLENEHTSNKMNVGFRLQRKNDKDKNVLSAARVNDDHILSCACSFRNEHDVVLVTSDNILKLKAYAEGIPTVSTLKDVTRLTNGLRGGKFE”, the “soluble on expression in E. coli” value was “not soluble”.

Take “MSTDIDCIVIGAGVVGLAIARALAAGGHEVLVAEAAEGIGTGTSSRNSEVIHAGIYYPADSLKARLCVRGKHLLYEYCAARGVPHQRLGKLIVATSDAEASQLDSIARRAGANGVDDLQHIDGAAARRLEPALHCTAALVSPSTGIVDSHALMLAYQGDAENDGAQLVFHTPLIAGRVRPEGGFELDFGGAEPMTLSCRVLINAAGLHAPGLARRIEGIPQDSIPPEYLCKGSYFTLAGRAPFSRLIYPVPQHAGLGVHLTLELGGQAKFGPDTEWITTEDYTLDPRRADVFYAAVRSYWPALPDGALAPGYTGIRPKISGPHEPAADFAIAGPASHGVAGLVNLYGIKSPGLTASLAIAEETLARLAALEHHHHHH”: the “soluble on expression in E. coli” value is recorded as “not soluble”.

“MNLPAHTALFTPSWHAELELGYGRFYDCTRPTQRRHKGPLRVQKHLYAEGPEVCQHIIVHPPGGIAGGDRLDISVNVGAHAWAQLTSPGAAKWYRAASPAFQQLELHVQPGATLEWLPQETIVFSNAQAELTTRIELHGDARLCYWDVVALGRPASGERFEHGHFQSHLDIRRDGTLLWHERQRIIGADGLLDSPIGLDGKTVFATLLLTGDVDSDLLEVCRSLSMPSPVRGNLTQLPGLIVARCLADEALHARAWLIEIWKRLRPALLGREAVMPRIWNTLEHHHHHH”: the “soluble on expression in E. coli” value is recorded as “not soluble”.
